Measurements reported in publication PMC3699631, “Posttranslational Modifications of the Histone 3 Tail and Their Impact on the Activity of Histone Lysine Demethylases In Vitro” (PLoS ONE, 2013).

Columns and labels:
human cc-KDM4A = molecular target: T1, human cc-KDM4A (Homo sapiens, UniProt O75164); experiment: FDH-assay enzyme kinetics of H3 peptide demethylation, truncated KDM4A; type: biochemical; design: key to K m / k cat / k cat /K m: 0 means no demethylation could be detected; details: cc-KDM4A; for K m / k cat / k cat /K m / demethylation / catalytic activity (in words): FDH-assay; for K m: 50 mM HEPES (pH 7.5), 50 mM NaCl, 50 µM FeSO4, 500 µM α-KG, 500 µM ascorbate, 2 mM NAD, substrate 10–1000 µM, NADH fluorescence 15–30 minutes; for K m / k cat / k cat /K m: triplicate; for k cat / k cat /K m: pH 7.5; for k cat: NADH fluorescence; for demethylation / catalytic activity (in words): compared to H3(1–24)K9me3 where a change is stated
T1 construct: Truncated constructs of KDM4A and KDM4C containing only the catalytic cores (cc-KDM4A/cc-KDM4C); made in house
T1 sequence (O75164 1-350 limits assumed): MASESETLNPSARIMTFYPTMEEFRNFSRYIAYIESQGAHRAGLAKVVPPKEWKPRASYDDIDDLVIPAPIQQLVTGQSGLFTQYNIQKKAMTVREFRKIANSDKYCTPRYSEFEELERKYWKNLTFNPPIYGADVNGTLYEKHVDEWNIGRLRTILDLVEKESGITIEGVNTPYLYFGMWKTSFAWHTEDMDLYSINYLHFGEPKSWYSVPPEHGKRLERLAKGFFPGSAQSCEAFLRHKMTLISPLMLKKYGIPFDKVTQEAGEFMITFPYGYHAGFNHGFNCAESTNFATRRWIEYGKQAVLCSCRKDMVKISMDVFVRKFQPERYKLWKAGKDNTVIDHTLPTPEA
Procedure: (§1) The enzyme kinetics were measured using a Formaldehyde DeHydrogenase Assay (FDH-Assay) and the demethylation of substrates was confirmed when possible by MALDI-TOF-MS, see File S1 for details. The test solution contained 50 mM HEPES (pH 7.5), 50 mM NaCl, 50 µM FeSO4, 500 µM α-KG, 500 µM ascorbate, 2 mM NAD, approximately 0.05 unit of FDH and e.g. 4.88 µM KDM4C (enzyme concentration varied between batches). The reference solution was comprised of the same except substrate. The assay was initiated by adding various concentrations of H3 peptide substrates e.g. H3(1–24)K9me3 (10–1000 µM) and the increase in NADH fluorescence was measured over 15–30 minutes in 30 second intervals. Data analysis and kinetic values were obtained using programs Excel and GraphPad Prism® 5.0. For details, see File S1.
(§2) The standard deviations for k cat/K m were calculated using the statistic law of propagation of errors. Standard errors for Michaelis-Menten Kinetics were automatically given in GraphPad Prism®, with a 95% confidence interval. All enzyme kinetic curves were done in triplicate unless otherwise stated.
(§3) Test for activity of enzyme using the fluorescence FDH assay, determination of Vmax and Km of enzymes with substrate, expression and purification of cc-KDM4A and cc-KDM4C software and parameters for the FDH coupled assay, see Lohse et al.^21
as §2, with “kcat/ Km” for “k cat/K m”, “95 %” for “95%”

human cc-KDM4C = molecular target: T2, human cc-KDM4C (Homo sapiens, UniProt Q9H3R0); experiment: FDH-assay enzyme kinetics of H3 peptide demethylation, truncated KDM4C; type: biochemical; details: for K m / demethylation / catalytic activity (in words) / k cat / k cat /K m: FDH-assay; for K m: 50 mM HEPES (pH 7.5), 50 mM NaCl, 50 µM FeSO4, 500 µM α-KG, 500 µM ascorbate, 2 mM NAD, substrate 10–1000 µM, e.g. 4.88 µM KDM4C, NADH fluorescence 15–30 minutes; for K m / k cat: triplicate; for demethylation / catalytic activity (in words): compared to H3(1–24)K9me3 where a change is stated; for k cat: pH 7.5, NADH fluorescence; for k cat /K m: pH 7.5, triplicate
T2 construct: Truncated constructs of KDM4A and KDM4C containing only the catalytic cores (cc-KDM4A/cc-KDM4C); made in house
T2 sequence (Q9H3R0 1-349 limits assumed): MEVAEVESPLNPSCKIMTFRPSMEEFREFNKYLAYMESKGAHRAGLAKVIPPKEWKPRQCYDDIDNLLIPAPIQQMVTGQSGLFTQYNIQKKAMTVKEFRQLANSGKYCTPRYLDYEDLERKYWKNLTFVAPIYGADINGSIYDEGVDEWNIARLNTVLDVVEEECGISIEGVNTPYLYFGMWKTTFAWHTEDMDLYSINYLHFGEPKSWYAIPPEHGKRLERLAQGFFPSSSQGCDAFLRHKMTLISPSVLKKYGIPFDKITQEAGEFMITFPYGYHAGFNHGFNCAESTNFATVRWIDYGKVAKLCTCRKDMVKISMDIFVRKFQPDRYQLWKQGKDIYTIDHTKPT
Procedure: as §1, §2, §3
as §2, with “kcat/ Km” for “k cat/K m”, “95 %” for “95%”

[1] = SD by propagation of errors, unit: min^−1 * µM^−1 * 10^3
[2] = SD by propagation of errors, unit: (min^−1 * µM^−1) * 10^3

Substance | K m (human cc-KDM4A) | k cat (human cc-KDM4A) | k cat /K m (human cc-KDM4A; [1]) | fold increase in k cat/K m (human cc-KDM4A; compared to H3(1–24)K9me3) [fold] | k cat /K m (human cc-KDM4A; figures and text) [min^-1 * μM^-1 * 10^3] | K m (human cc-KDM4C) | demethylation / catalytic activity (in words) (human cc-KDM4C) | k cat (human cc-KDM4C) | k cat /K m (human cc-KDM4C; [2]) | fold increase in k cat/K m (human cc-KDM4C; compared to H3(1–24)K9me3) [fold] | k cat /K m (human cc-KDM4C; figures) [min^-1 * μM^-1 * 10^3] | demethylation / catalytic activity (in words) (human cc-KDM4A)
H3(1–24)K4me3K9me3: bis-tri-methylated substrate, trimethylated K4 in combination with H3K9me3 | 82±11 | 1.1±0.04 | 13.4±1.9 | 2 | 13±2 | 70±13 | an increase of the enzymatic catalytic efficiency | 1.2±0.1 | 17±2 | 2 | 17 ± 2 | 
H3(1–24)K9me2: truncated histone tail, 24 first amino acids from the N-terminus of H3, dimethylated lysine 9 | Below detection | Below detection | Below detection |  |  | 79±10 |  | 0.1±0.01 | 1.3±0.2 |  |  | could not be detected
H3(1–24)K9me3: truncated histone tail, 24 first amino acids from the N-terminus of H3, trimethylated lysine 9; control peptide | 131±16 | 1.1±0.04 | 8.4±1.1 |  | 8.4±1.1 | 55±11 |  | 0.5±0.04 | 9±1 |  | 9 ± 1 | 
H3(1–24)K9me3T11(ph): H3(1–24)K9me3 with phosphorylation of threonine 11 | 0 | 0 | 0 |  |  |  | no detectable turnover |  |  |  |  | no detectable turnover
